Measurements as given in a protein production outcome set (Wang et al. 2014).

Experiment: label from the status in PepcDB records

Sequence | protein production
MFLSGAHSFNANCRRQRQRVFGAPRVPLGESKICCVWAQHFLPCSRVYDPMTSKVSSPTLLEALSSDFLACKICLEQLHTPKTLPCLHTYCQDCLAQLDIGGQVRCPECRETVPVPPEGVAAFKTNFFVNGLLDLVKARAAGDSHSGKPTCALCPLVGGKSSGGPATARCLDCADDLCQACADGHRCSRQTHKHRVVDLVGYRAGWYDEEARERQASQCPQHPGETLCFLCQPCSQLLCKDCRLGPHIDHPCLPLAEAVRSRKPGLEELLAGVDSNLLELEATRVAEKEALALLREQAASVGTQVEEAAERILKSLLAQKQEVLGQLRALVEAAEEATRERLTKIESQEQVAKAAAAFARRVLSLGLEAEILSLEGAITQRLRQLQDTPWTSGPTRCVLPQLELHPGLEDKNCHLLRLSFEEPRQSQKDGGKVGAGTQGGDEAQSQGDDRTKTGKQGGAQPLIPKEGKAQNPPEDDEVLIERGNRPNKKKKCKGRGKSVSREPSPILRPNLEGSGPLPRPVFSWSFPTRMPGDKRSPRITGLCPYGPQEILVADEQNRVLKRFSLNGDYKGTVPVPEGCSPCSVAALQNAVAFSANAKLYLVSPEGEVQWRRSLSLAQSSHAVAAMPCGDRVAVSVAGHVEVYKKEGSLATRFIPGGKASRGQRALVFLTTSPQGNFVGSDWQQNSVVFCDGLGQVIWEYKGPGLHGCQPGSVSVDKKGYIFLTLREVNKVVILDPKGSLLGDFLTAYHGLEKPRVTTMVDGKYLVVSLSNGTIHVFRVRFPDS | failed
MFLTLSGADMSALIKGSGPHHVVVLNGWFGHAAGWGAFADYLDLGNYTWHFWDYRGYGNRKDDAGEFTLEEISADIVAYIDSIEAEKVSILGHSMGGVFMQKVLADSATPIASLVGISAVAAAGTPFDEDSRKLFTSAGHNPDSRRAIIDFTSGSRQPAAWLDDLTDSTVQNSTPEAVEKYFFAWADCNFAADLGTQDLPVYILTGDLDPAVTKTAVESAFGPIYQNLTVEELHDVGHYAIFEHPLGLAARVLRFLDAV | failed
MFLTVKLLLGQRCSLKVSGQESVATLKRLVSRRLKVPEEQQHLLFRGQLLEDDKHLSDYCIGPNASINVIMQPLEKMAL | failed
MFMIKVITPETNHPKEGGILSALVSIYNCTIHIRKPRFTADQYKKYLHDHNQLLSHFVLHEHHSLAKEFPVMGVHLKELDRINPAQVHPDIKIISTSIHSIADAGNLSHPFEYIFYSPLFQSISKENYGTNNSLADLKKTVSELKEQTGIPIIGLGGIYEANIDLVKKSGFDGAALLGAVWVQSDPLAAFGRIASMILEHHHHHH | failed
MFNDWRRVLALSGKALGAILFCEAVGLLAAWVTQTSVTTWYPTLTKPSFTPPNWVFAPAWTTLYALMGVAAFLVWRCGPDRTRVRTALTAFGLQLAANAGWSFAFFGARSPALGLVVILGLWGLLAWTMDRFFRVRPVAGWLLVPYLAWVTYALALNAAIWGLN | failed
MFNNKQKQLVIILISLLLTFTSQASLASDTTILNEIINPQLIHIYEWETLSVYEKENVSQKPANWDSAESFYGSTRLSLLGEERFYRAKFTIGWHHRTRNLAISVGPLKGTDEVYINGFRVDDSGSGDYDLFFQNSYRVYRLPRNKTWFSWFNYTKENELLIKLSSSKRGQVLDSDYVEIGDYETLALKSRDFDSTIKTSQGSAIALLFMLILFIIFLHVNQYNKKSNTLFGFFIFYLSLSIASTSLFLNGPEYDGELLLSLSACLDLVSLVVFIKIVSDKFDLNISHYKRNEKSIKIFGTVSVLCILIFSDIFFAQKWFNLIIYIVMLLVVISTIHQLVIGRNIGGANYSIVSALMIMFLGVAFNGLWGGNSWPISPYHIGAILSSIFLLYSIAQDFKKMTLSMHAMSSRLVNIREIERARLTRDIHDGVGQGLATIRLFITMNINNFEPQLGISLKNEVDQTSNTLKSVIRNLKPIEMDDGNPSEAIIELARHLCEIAQIEMKVIHSDKADMNTENAYQLYRIGQEALNNSIKHSCCTLITIDIQRDRDRLIMSISDNGKGIKKQVENLGYGLSSMQERALLIGGQLRINNAIDSGVQVFLEVPIND | failed
MFPHLALLNAHKRMHTDGEQQQQQQHNAQAGGDSIAVVSAQGLVQAQNIIGNGQMGQIQIVSSDTLEPVQQSVMQQQQHESKASKCINCGSSMLQQSKRKGPKQVRCESCMQAEQTAQQQQQLFVAQDG | failed
MFQPHLPVRLPCYDLAPITSFTLGRSLRLRTSGTPGFHGLTGGVYKARERIHRAMADARLLANPASRSRVADFDPN | failed
MFQTQFSPINFRETKIIKANYKRFHEIRAKVQTETNDALNENEISAIKKSGFRGHVDISYKSSASFSPLPLQQYFTTMKKIVMRKLRSPVSHCMLVTKCQTTLQIGYIDWMESKSLSNIID | failed
MFRKLAAECFGTFWLVFGGCGSAVLAAGFPELGIGFAGVALAFGLTVLTMAFAVGHISGGHFNPAVTIGLWAGGRFPAKEVVGYVIAQVVGGIVAAALLYLIASGKTGFDAAASGFASNGYGEHSPGGYSMLSALVVELVLSAGFLLVIHGATDKFAPAGFAPIAIGLALTLIHLISIPVTNTSVNPARSTAVAIFQGGWALEQLWFFWVVPIVGGIIGGLIYRTLLEKRD | not failed
MFRRLILRQAAAVAAESKIACHHTVHGFEQRRGLHSRNEKAMEYVAKGWSAIKEVERVIDYCELNDRRLIPLLRGAKENFELALEADNLNTHARYWLSKLHLKYHVPGACKAVGAALLVEAADMGNADAQYELGCRLRVENDHVQSDQQAFHYIENAVDQLHPGALYLLGIVYLTGDCVKQDVDSAIWCFHRASEKGHAGAAIAYGSLLLRGVQVPESLTKLNVVGVSPPKRARKNLENPEMNPLEMAKEQFQIAARAGCDLGLKWLQRVEQEEKLLMREQDNECAYV | failed
MFRRTLPVLAAAVGLAAAAAGPATADDVPADRLPGHRVLDVMTFNIHHAQGTDDVLDLRRVANVIRKSGADVVGLQEVDKHYSARSDWADQPAELAELLGYHVVFGANIDNSPPAPGGHRVQYGTAILSRYPITASDNTWLYKSPGQEQRGLLHATLDVHGKKVEFYNTHLAAGSQADRLQQTAQVVDLIGTRKPGILVGDFNALPAAPESRPLQNAYTDAWAKSLHARGDGATYPAQSPTERIDLIYATRRVTPLVAQVLKDDPAASDHRPLLGKVLV | failed
MFRVFILFGFGFYLMQLHISGDISKYINMKYAYLSFSAMIAAFLLAIIQLIMVFRDEDIGAKTEHMGHTHDGENTILKKIMVYGLLSYALIAGFLFPVATLDSTIVSAKGFHFPKNNAAGDDPYAQNQFLRPDTSGYFGETDYEKMMAKEKAEIIDQNPIKVNDSNYLMTMEILYNYPGEFTGKQIEFTGFVYNDEVTKDNNLFLFRFGIIHCVADSGVFGMLVQMPEKTNLKNDTWLTVKGTITQEYYSPFKMNIPSVQVESYKEVAKPKSVYVYRKY | failed
MFSAKKRDKCIGEMSEKQLDLLVIGGGITGAGIALDAQVRGIQTGLVEMNDFASGTSSRSTKLVHGGLRYLKQFEIKLVAEVGKERAIVYENAPHVTTPEWMLLPIFKDGTFGKFSTSLGLKVYDYLADVRKDERRYMLNEKQTLEKEPLLRKENLKGGGIYVEYRTDDARLTLEIMKEAVARGAVALNYMKVESFIYDQGKVVGVVAKDRLTDTTHTIYAKKVVNAAGPWVDTLREKDRSKHGKYLKLSKGVHLVVDQSRFPLRQAVYFDTESDGRMIFAIPREGKTYIGTTDTFYDKDIASPRMTVEDRDYILAAANYMFPSLNLTADDVESSWAGLRPLIHEEGKKASEISRKDEIFFSDSGLISIAGGKLTGYRKMAERTVDAVAQGLNVNEPCTTAAIRLSGGLAEGAQGFPRFLDEASRKGAKLGFDADEVRRLAKLYGSNVDHVLNYAYEGKEEAEHYGLPALLLGQLQYGVEQEMVATPLDFFVRRTGALFFNISLVHQWKEAVLRWMAEEFSWTEEEKTRFQNELETELKMAVDPLFQVEPTTVLEHHHHHH | not failed
MFSEVEMARDVAICAKHLNGQSPHQPILCRLLQDLIHEKACREHGFYLGITALKSIGNNKNNNIDNENNHQAKILTFPVSFTCRTFLPARGDILQGTVKKVLWNGAFIRSGPLRYAYLSLLKMPHYHYVHSPLSEDEKPHFQKDDLSKIAVGVVVRFQVLAVRFKERPHKRRNDYYVLATLEGNGSFGPISLTGSDEPYM | failed
MFSFFSRWYQERFSDPQAVTLLAILVGLALVLYFAGGLLAPLLVALVLAFLLEWPVAQMLKLGINRTTAASLVLIIFLGIVVLLTFGLIPSVWRQGVSLMTDLPSMIDKGLQTVQGLATQYPQFISVEQLNLMVAELKKLLDTQHVLDIAKQLIGYSASLLVLMVYAILVPLLVFFFLKDKDQLISGSKRFFPTNRQLARKVWFEMHQQIFNYIRGKVIEIVIVGVASYILFAFMGLSYSALLGVLTGLSVLIPYVGATLVTLPIMLVAFFQWGFSSEFGYLMLGYGIIQALDGNVLVPILFSDAVDLHPVIIIAAVLVFGGLWGVLGVFFAIPLASLVKAVINAWPKTEIEPSASAPPQK | failed
MFSIVFPVIAPVLIVVAVGFGWARAGRPFDTATVSALGLGLGTPFLLTDVLMSANIAADALAAMGLAALLTLAGMAVGGALTLRLLKLPQAVFLPSMIFGNTGNIALPLCLFAFGDEGLALSIGYFTVVIVIQFSATALISSGERPVPVILRNPVIWTLLVVGTLKAGGIALPGWLADTAHMVGGMCIPVMLLALGVSLARLKVAGLGVALLLGAVKIALGVALGYATVLALDLHGAARGVVLIQSAMPPAVFNYLFAARYNQRPEEVAGLVIVSTGLSVLTMPLLLWGAMADM | failed
MFSKLKKTWYADDFSYFIRNFGVFTLIFSTMTLIILQVMHSSLYTSVDDKLHGLSENPQAVIQLAINRATEEIKDLENARADASKVEIKPNVSSNTEVILFDKDFTQLLSGNRFLGLDKIKLEKKELGHIYQIQVFNSYGQEEIYRVILMETNISSVSTNIKYAAVLINTSQLEQASQKHEQLIVVVMASFWILSLLASLYLARVSVRPLLESMQKQQSFVENASHELRTPLAVLQNRLETLFRKPEATIMDVSESIASSLEEVRNMRFLTTSLLNLARRDDGIKPELAEVPTSFFNTTFTNYEMIASENNRVFRFENRIHRTIVTDQLLLKQLMTILFDNAVKYTEEDGEIDFLISATDRNLYLLVSDNGIGISTEDKKKIFDRFYRVDKARTRQKGGFGLGLSLAKQIVDALKGTVTVKDNKPKGTIFEVKIAIQTPSKKKK | failed
MFSLREYRNKADRLADFLPWAALVAPGVVLNKDGSFQRSARFRGPDLDSATPAELIATTARLNSALRRLGSGWAIFVEAVRRPAHDYPESDFPDAASALVERERAAQFAEEGAHFESAYYLTLVWMPPAEDAARAESWLYEGKAHQGVQARELLELFSDRTDRLLRLIEGFVPEAAWLDDSETLTYLHSCISTRNHRVRVPETPMHLDALLADEPLTGGLEPRLGRAHLRTLTVVGFPSATFPGILDELNSQGFAYRWSTRAIMLDKTDAAKLLGKIRRQWFAKRKSVAAILKEVMTNEASALLDSDASNKAADADAALQELGSDLQGMAYVTATVTVWDEDAAMAAEKLRLVEKVIQGRDFTVIVEGMNALEAWLGSLPGHVYANVRQPPISTLNLAHMIPLSAVWAGPEWDAHFRAPPLFYARTEGSTPFRFALHVGDVGHTLIVGPTGAGKSVLLALMALQFRRYDRAQIFAFDFGGSIRAAALACGGDWQDLGTSLAGDGAGAVMLQPLARIDEPAERNWAAEWLQAVLTGEGVTVDPATKEHLWSALTSLSTALVAERTLTGLAVLLQSQALKQALAPYCIGGPFGRLLDAEAEQLGAGKFQAFETEGLTGSAAAPAVLSYLFHRIEGRLDGSPTLIIIDEGWLVLDSPAFAAQLREWLKTLRKKNASVVFATQSLADIETSAIAPAIIESCPTRIFLPNERAIEPQILSVYRRFGLNDRQIEIIARAAPKRDYYCQSARGNRLFELGLGEVALAFAAASSKTDQLAISELTETHGTGGFARAWLRHRGLAWAADMLPPDPVPPTRSDQAAGQPKE | failed
